From article PMC9684356 come the findings set out here.

Series [1] deals with T1, HLTF HIRAN domain (UniProt Q14527 51-171).
T1 sequence: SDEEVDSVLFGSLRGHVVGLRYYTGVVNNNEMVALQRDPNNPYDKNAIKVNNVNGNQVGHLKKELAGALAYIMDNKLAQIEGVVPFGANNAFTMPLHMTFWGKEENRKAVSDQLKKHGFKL
As to the kind of experiment: fluorescence polarization. Background: In fluorescence polarisation assays a small probe gives low polarisation when free and higher when bound to something large.

The target in series [2] is T1, HLTF HIRAN domain. The experiment in a line: competition.
The target of series [3] is T1, HLTF HIRAN domain. The experiment in a line: fluorescence polarization. The source holds these as a separate data set.

Read-outs that look alike come from different tables or passages of the source.

By Kd is commonly meant the equilibrium constant for the complex coming apart. High values mean a looser complex, low ones a tighter complex. Take AAAAA (ssDNA) [5'-FAM-A5]: in series [1], binding was put at a Kd of 0.16 ± 0.04 µM.
On the same count and under the same terms, for TTTG (ssDNA) [5'-FAM-TTTG] the value was 0.1 ± 0.02 µM.
As usually defined, the IC50 is the concentration that gives 50% inhibition. As to ATTG (ssDNA), the IC50 in series [2] stood at 1.8 ± 0.2 µM.
Regarding TTTTT (ssDNA) [5'-FAM-T5], in series [3], the Kd turned out to be 0.14 ± 0.03 µM.
In the case of TTA (ssDNA), the half-inhibitory concentration (IC50) in series [2] came out at 4.3 ± 0.4 µM.
The same measure, in the same setting: to TTTTT (ssDNA) [T5] belongs 2.4 ± 0.6 µM.
Still for that read-out and setting: for CTT (ssDNA) the value was 10 ± 1.5 µM; for TTC (ssDNA), 13.5 ± 0.6 µM.
Still for that read-out and setting: to TAT (ssDNA) belongs 34.9 ± 9.2 µM; to CTG (ssDNA), 2.5 ± 0.2 µM.
On to TCC (ssDNA) [5'-FAM-TCC], for which the Kd in series [1] is 0.21 ± 0.07 µM.
For ATG (ssDNA), the concentration for half-maximal inhibition (IC50) in series [2] turned out to be 2.9 ± 0.4 µM.
In series [1], GTTG (ssDNA) [5'-FAM-GTTG] gave an equilibrium dissociation constant (Kd) of 0.22 ± 0.09 µM.
CTTG (ssDNA): the 50% inhibitory concentration (IC50) in series [2] worked out at 1.6 ± 0.2 µM.
Same read-out and setting: to CCG (ssDNA) belongs 3.6 ± 0.2 µM; to GCC (ssDNA), 31.8 ± 8.5 µM; to TCG (ssDNA), 2.9 ± 0.3 µM.
Still for that read-out and setting: for TCC (ssDNA) the value was 17.1 ± 4.8 µM.
ATATA (ssDNA) [5'-FAM-ATATA]: the dissociation constant (Kd) in series [1] was 0.17 ± 0.06 µM.
Molecule ATG (ssDNA) [5'-FAM-ATG] showed an equilibrium dissociation constant (Kd) in series [1] of 0.09 ± 0.01 µM.
TTTG (ssDNA) returned an IC50 in series [2] of 2 ± 0.2 µM.
In turn, GTG (ssDNA) [5'-FAM-GTG] yielded a Kd in series [1] of 0.18 ± 0.01 µM.
GTG (ssDNA) showed a half-inhibitory concentration (IC50) in series [2] of 2.2 ± 0.07 µM.
For the molecule GGG (ssDNA), in series [2], the IC50 turned out to be 20.2 ± 5.1 µM.
Take TGT (ssDNA): the IC50 in series [2] is 15.5 ± 0.9 µM.
TTG (ssDNA) [5'-FAM-TTG]: in series [1], the Kd amounted to 0.03 ± 0.01 µM.
Molecule TTT (ssDNA) yielded an IC50 in series [2] of 4.3 ± 0.9 µM.
Turning to CTG (ssDNA) [5'-FAM-CTG], in series [1], binding was put at a Kd of 0.06 ± 0.01 µM.
In turn, TTG (ssDNA) came in with an IC50 in series [2] of 2.8 ± 0.5 µM.
Same read-out and setting: to TCT (ssDNA) belongs 6.8 ± 0.7 µM; to CCT (ssDNA), 6.9 ± 0.07 µM.
For the molecule TATAT (ssDNA) [5'-FAM-TATAT], the affinity in series [1], expressed as Kd, was 0.25 ± 0.1 µM.
Regarding GTTG (ssDNA), in series [2], the IC50 was found to be 1.7 ± 0.1 µM.
On the same count and under the same terms, to GGT (ssDNA) belongs 5.4 ± 0.2 µM.
The same measure, in the same setting: for CAG (ssDNA) the value was 31.7 ± 3.9 µM.
